Columns and labels:
MtrA (unphosphorylated) = biological target: T1, MtrA (unphosphorylated) (UniProt P9WGM7); test: EMSA; conditions: 50 mM Tris-HCl pH 7.5, 50 mM NaCl, 10 mM MgCl2, 10 mM CaCl2, […]
T1 sequence: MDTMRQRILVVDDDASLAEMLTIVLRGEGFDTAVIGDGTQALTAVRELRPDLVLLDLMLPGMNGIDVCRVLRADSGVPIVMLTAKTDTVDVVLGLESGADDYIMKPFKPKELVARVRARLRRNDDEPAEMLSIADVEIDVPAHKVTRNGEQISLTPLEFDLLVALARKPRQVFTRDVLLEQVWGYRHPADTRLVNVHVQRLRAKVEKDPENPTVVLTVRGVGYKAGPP

MtrA~P = biological target: T2, MtrA~P (UniProt P9WGM7); test: EMSA; conditions: 50 mM Tris-HCl pH 7.5, 50 mM NaCl, 10 mM MgCl2, 10 mM CaCl2, poly dI/dC and sheared salmon sperm DNA (1 ug), 37 C 15 min; 200 fmol DNA, 1-10 uM protein; 5% …
T2 sequence: T1 sequence

Row | Sequence | binding (MtrA (unphosphorylated)) | binding (MtrA~P)
1 | TCGACTCAGATCTCCTAGGGCTCAACTCGGAGGGACAGCGCAGGTCAACGCCAACGACACCACAAGCATCATTTGCACCGTACGTCACATCTGACGCTATGGAAACGTAAGTCACAAACTGCCCCCGGTACGTGCGACTAATGTGACCCAACGGTGACCTCGCGCGTTTGCCGCAAACAACCGCCCGGTTAGCGCGGCAA (double strand) [PripA] | binds | binds
2 | CTGTGCAGAGTAGGTGATCGGCGGCCCGACCGCGAGGAGCCGCGCTGTGACTGGCGGGACGAAAGTTACAGATGAAGATATTTGCGTCCGGTGTCGGTGAGCACGCTGCGCAGGATGGTTTCGATGGTGTCGAACTCGGGCTGTCCGCTAATCAGCGGGGGAGCCACCTGGACGACGGGGTCCCCGCGGTCGTCGGTG (double strand) [PdacB1] |  | binds

— article PMC6265350
